Measurements taken from the DeepSol protein solubility set.

Experiment: soluble on expression in E. coli; label from the status in PepcDB or PDB records

Row | Sequence | soluble on expression in E. coli
1 | AHHHHHHGSLEKLLEQAGIKLDFDGEEEKKSEIVDEFSGYKINIAVVGVGGSGNNTISRLYDLGVQGADLIAMNTDAQHLAITKAHKKVLLGKHITQGKGSGGDPKVGYLAAEASAQEIAAAVDGYDLVFITAGMGNGTGTGAAPVVARIVKETARNNGRFQEPLVVSVVTFPFKTEGTVRIEKAKWGIQRLLEYSDTVIIIQNDKLLELVPKLPLQSAFRFADELIARMVKGIVETIKLNSIVNIDFADVYSIMKGGGPALIGIGESDSNNRAVDAVNNALTNKMLDVEFGSGEKALVHFTIGPDVSLEEINKAMEVVYEKLSEKSEIKWGAMVDPEMGKTVRAMVIMTGVRSPYILGNVNALTDSSSWVVPKDRRLIGDPRIEKMFPDFNGSRAGRKRPSVGDAILKELGFKEL | soluble
2 | AHHHHHHGSLLPDWKIRKEILIEPFSEESLQPAGYDLRVGREAFVKGKLIDVEKEGKVVIPPREYALILTLERIKLPDDVMGDMKIRSSLAREGVIGSFAWVDPGWDGNLTLMLYNASNEPVELRYGERFVQIAFIRLEGPARNPYRGNYQGSTRLAFSKRKKL | soluble
3 | AHHHHHHGSRYFFYPNSVAIFGSFREGAIAREILRNIVEGGFEGKIIPVNPKGGEVEVAGKKFNIKEKLDEPVDVSIIAIPAKLVPELIRGLKGLTKGAVVISAGFSEVGNVELEKELIKAAKEAGIRVIGPNCAGIFGVHAKFYGSFEVRVNPGGLALISQSGAFGGAALAMGNEEGIGFSAFVSYGNAADLDESDFLRFFADDENTRVIGLYIEGVKDGRKFLDALRYAASKKPVIILKAGKSRAGARAAASHTGSLAGSYEIYRAAFRQAGAIEVEEMEELFDAAKAFEMYERAGRRVAIITNSGGPGVLATDKLERLGLEIAKLTEETVEELRSFLPPQCSVKNPVDLIADADYERYKRAIEVVCRDENVDAILVICVPPIFIPSEEIARAVVEANCDKPIIVNFMAGELVREGIKILESKKIKNFPTPERAAKALYWLSLRSSSE | soluble
4 | AHHHHHHGSSEVYRLTCIVCPLSCSIEVEIEAGKIKDIKGYTCPRGKEWAIEEIRAPKRVVMSVIPVEGGKLPTVSVKTEKPIPKDKIPELMKMLAKLKLKAPVKVGQVVGEFEGVKIIATREA | soluble
5 | AHHHHHHGSVEQDPYEIVIKQLERAAQYMEISEEALEFLKRPQRIVEVTIPVEMDDGSVKVFTGFRVQHNWARGPTKGGIRWHPEETLSTVKALAAWMTWKTAVMDLPYGGGKGGIIVDPKKLSDREKERLARGYIRAIYDVISPYEDIPAPDVYTNPQIMAWMMDEYETISRRKTPAFGIITGKPLSIGGSLGRIEATARGASYTIREAAKVLGWDTLKGKTIAIQGYGNAGYYLAKIMSEDFGMKVVAVSDSKGGIYNPDGLNADEVLKWKNEHGSVKDFPGATNITNEELLELEVDVLAPAAIEEVITKKNADNIKAKIVAEVANGPVTPEADEILFEKGILQIPDFLCNAGGVTVSYFEWVQNITGYYWTIEEVRERLDKKMTKAFYDVYNIAKEKNIHMRDAAYVVAVQRVYQAMLDRGWVKH | soluble
6 | AHPLENAWTFWFDNPQGKSRQVAWGSTIHPIHTFSTVEDFWGLYNNIHNPSKLNVGADFHCFKNKIEPKWEDPICANGGKWTISCGRGKSDTFWLHTLLAMIGEQFDFGDEICGAVVSVRQKQERVAIWTKNAANEAAQISIGKQWKEFLDYKDSIGFIVHEDAKRSDKGPKNRYTV | soluble
7 | AIAAAVKDSCGKGEMATGNGRRLHLGIPEAVFVEDVDSFMKQPGNETADTVLKKLDEQYQKYKFMELNLAQKKRRLKGQIPEIKQTLEILKYMQKKKESTNSMETRFLLADNLYCKASVPPTDKVCLWLGANVMLEYDIDEAQALLEKNLSTATKNLDSLEEDLDFLRDQFTTTEVNMARVYNWDVKRRNKDDSTKNKA | soluble
8 | AIAALKDYALEKEKVKKFLQEFYQDDELGKKQFKYGNQLVRLAHREQVALYVDLDDVAEDDPELVDSICENARRYAKLFADAVQELLPQYKEREVVNKDVLDVYIEHRLMMEQRSRDPGMVRSPQNQYPAELMRRFELYFQGPSSSKPRVIREVRADSVGKLVTVRGIVTRVSEVKPKMVVATYTCDQCGAETYQPIQSPTFMPLIMCPSQECQTNRSGGRLYLQTRGSRFIKFQEMKMQEHSDQVPVGNIPRSITVLVEGENTRIAQPGDHVSVTGIFLPILRTGFRQVVQGLLSETYLEAHRIVKMNKSEDDESGAGELTREELRQIADVIFATVRELVSGGRSVRFSEAEQRCVSRGFTPAQFQAALDEYEELNVWQVNASRTRITFV | soluble
9 | AIACGDCVEKEYPNRGNTCLENGSFLLNFTGCAVCSKRDFMLITNKSLKEEDGEEIVTYDHLCKNCHHVIARHEYTFSIMDEFQEYTMLCLLCGKAEDTISILPDDPRQMTLLF | soluble
10 | AIADEEEEISVVQDMAYDYSGKRLATVSIDREICIWNKKDDWQRTYQWKAHEGPLFGVSWAHPCFGNILATGSYDKRVIIWEEPEASSSYSSSSMDKSTKGWTALAHLVDARDEVRQVQFAPPHLGLLLASGSADGYVRIYTCIDEADLHQWPLLTELDMDSPVVGMSWNPSVDSIPLIVVASHKDCRVWSMDNDTRRWTDWHLFRTSESDTADLSAVAWAPHVGRSFERIALGCEDGSILLFQFPRIQQGNKTNGHEMQPICRLNHGNERIVRLQWNMVGSILASSASDRMVRLWKALPQDGTRWNCFDVVHLNE | soluble
11 | AIAGTHSGHERNGESARGGALQRLERRLAAAWAEQDAYQIEQLAGMIYDRLVRSDPSAAATVLEQNAHRLAVAGKPAEAAELATRLIRHWRELEQRPFYLARLQQMVLEPLQALSGVEAARARTMVLEAVLAWKRASATVDTEEAAPAELAPVQDALVDAYVLCGEWARAQYQVVCRGGPAERDLAFIDEQLGPHLANDVERMLARTRLVLFYVLAGNLKAGRALVEEIQRKHPTAPMTNFVVILMQVLERARNVDSSKRRLLRNFCDDLKRVYHWAFSLDPELDAMLDDVLKAQGL | soluble
12 | AIAKILLVFDFDNTIIDDNSDTWIVQCAPNKKLPIELRDSYRKGFWTEFMGRVFKYLGDKGVREHEMKRAVTSLPFTPGMVELFNFIRKNKDKFDCIIISDSNSVFIDWVLEAASFHDIFDKVFTNPAAFNSNGHLTVENYHTHSCNRCPKNLCKKVVLIEFVDKQLQQGVNYTQIVYIGDGGNDVCPVTFLKNDDVAMPRKGYTLQKTLSRMSQNLEPMEYSVVVWSSGVDIISHLQFLIKD | soluble
13 | AIANDDRATAFNALKNKTVCVQGDGNSRQFYHALVEILSNHSSAIPVNKNGNDFCNAPFAQCPQDTYYFDLVDKSDNLSVKLYWRWAPEFSDIECPMKVPSGFTPGSNYSFPSGPDTLSCDINIMDAGQWELFEKDANVTTAGYSQGVSNLSKCFSSDKSAKYFWIAAYALTPEQLQIHLPYNNTDVERINEVATQGLNSTACVLNGYDVTVNAFNDTKEATTDGIHYLGWINEQVVHLFFNAVTNSSAPTVPSSNVSVTSPNVQLGQVPNLNPSTTNSFLPVQTIVTVPSSSATSASSGLNFGGSSQGGGSGIPQL | soluble
14 | AIASAADDVNKKRKTAKEVEQEECEIYQNVVFNSIVDSNSKHELVDPSLQKLGAKSRGKVTFLLEQASLELVKIDRKWEILNGDEHQQYMKRKNLNPADYRPDIVHQCVLSLLDSPLNKAGYLDLYIHTTNNVLIKVNPQTRIPRTLKRFCGLTVQLLQDLKIFGHGLNKPLLQIIQNPITNHLPDMCWKTVCSYNCENLMSPHKHAQEVLKKDMNILYVIGAMAHGKIVEEWADEELKISSFPLSASAVCHRICSAYEILYEVL | soluble
15 | AIAVFWGKPLASPRESPRAPGENGKRALHFCAVDEDFVRLFYSFFKSLVGKDVVVELKNDLSICGTLHSVDQYLNIKLTDISVTDPEKYPHMLSVKNCFIRGSVVRYVQLPADEVDTQLLQDAARKEALQQKQ | soluble
16 | AKDAAFTVDGLSLTSKTNTVSTAISGMTFDLVAPSAAGATTTVTVATNTDGLKASLQSFVDSYNTLATLVTSLTKGSISDKGVFTAAALTGDATPRALLATIRDQLAGASSRAGLSALSQLGIKTQQSNGTLSLDTATFTAALNDKKLGSQIQTMFTGTGATNADGTVDGGLVARMSKALLPYTKADGVLASKTSSLTKVQTRIASDQDALDRRIESLTASLTKKYNAMDLVVGQLKATATSITSIFEAMNAQKNAS | not soluble
17 | ALEGTEFARSEGASALASVNPLKTTVEEALSRGWSVKSGTGTEDATKKEVPLGVAADANKLGTIALKPDPADGTADITLTFTMGGAGPKNKGKIITLTRTAADGLWKCTSDQDEQFIPKGCSR | soluble
18 | ALQAGRLGSTVFVANLDYKVGWKKLKEVFSMAGVVVRADILEDKDGKSRGIGTVTFEQSIEAVQAISMFNGQLLFDRPMHVKMDERALPKGDFFPPERPQQ | soluble
19 | ALSGGFIKGFAHLGVIQALLEHDIKPDIISGVSAGALAGVFYADGNEPYRVLDYFSGHKFQDLTKLVIPKVGLFALGEFIDFLKSNLKAQKLEDLKLPLIITATDLDHGRSMHFHKGNIAERVAASCCMPVLFTPVKIGNTHYVDGGLLMNLPVSTIRNECEKVVAVNVSPLMAEKYKMNIVSIAMRSYHFMFRANTFPERDNCDLLIEPYNLEGYSNTELEKAEEIFEQGYNTASE | not soluble
20 | ALTEEILNAQPNPICVKDRNLHYIAVNKAFSAIHDLAPDAMLGRSASDLVETELAEHFERSDRHVLETGTPYSEAEHIVRADGSDLWVVTRKYRVGLPDRHFVVTCMNDVT | not soluble
21 | APEWTEEDLSQLTRSMVKFPGGTPGRWEKIAHELGRSVTDVTTKAKQLKDSVTCSPGMV | soluble
22 | AQVDLLNVKGEKVGTLEISDFVFNIDPNYDVMWRYVDMQLSNRRAGTASTKTRGEVSGGGRKPWPQKHTGRARHGSIRSPIWRHGGVVHGPKPRDWSKKLNKKMKKLALRSALSVKYRENKLLVLDDLKLERPKTKSLKEILQNLQLSDKKTLIVLPWKEEGYMNVKLSGRNLPDVKVIIADNPNNSKNGEKAVRIDGLNVFDMLKYDYLVLTRDMVSKIEEVLG | soluble
23 | ARLGNWEFDLETNVFTCSEESCRIFGIRDHRQGKSHRALMRRVHPEDRVTVKKAIFQAFRTGVGYCMDHRIVLDDGVERIVSQHAELLSADDGRTSRLVGTVHDIT | not soluble
24 | ASHHLRMHFKTLPAGESLGSLGLWVWGDVDQPSKDWPNGAITMTKAKKDDYGYYLDVPLAAKHRQQVSYLINNKAGENLSKDQHISLLTPKMNEVWIDENYHAHAYRPLKEGYLRINYHNQSGHYDNLAVWTFKDVKTPTTDWPNGLDLSHKGHYGAYVDVPLKEGANEIGFLILDKSKTGDAIKVQPKDYLFKELDNHTQVFVKDTDPKVYNNPYYID | soluble
25 | ASNIHRIQQIVEAAERYNRKVAVSGRSMENIVAVAIELGYLKVKEGVLIGIDAINRYADNKIVIITTGSQGEPMSALTRMAAQEHKKVKIQEGDMVVISANPIPGNEKLVSRVINQLFKKGAEVIYEALADVHVSGHACQEELKLMHTLIKPRFFIPVHGEYRHLKQHKELATNLGMPKANVVIPEIGGVIELTRSSIKKTDTVVAGKVFVDGLGVGDVGNIVLRDRKHLSQDGIVTVVVTIEKVSGTVIAGPDIISRGFVYVRESEDLMEESKEIVKTALLECEEKHITEWATIKSNIKDVLRIFLYERTKRKPMILPIIME | not soluble
